Source: IntAct's records for PubMed 19109891

B1: Dystrophin (Homo sapiens), P11532-5 (parent)
chain: MREQLKGHETQTTCWDHPKMTELYQSLADLNNVRFSAYRTAMKLRRLQKALCLDLLSLSAACDALDQHNLKQNDQPMDILQIINCLTTIYDRLEQEHNNLVNVPLCVDMCLNWLLNVYDTGRTGRIRVLSFKTGIISLCKAHLEDKYRYLFKQVASSTGFCDQRRLGLLLHDSIQIPRQLGEVASFGGSNIEPSVRSCFQFANNKPEIEAALFLDWMRLEPQSMVWLPVLHRVAAAETAKHQAKCNICKECPIIGFRYRSLKHFNYDICQSCFFSGRVAKGHKMHYPMVEYCTPTTSGEDVRDFAKVLKNKFRTKRYFAKHPRMGYLPVQTVLEGDNMETPASSPQLSHDDTHSRIEHYASRLAEMENSNGSYLNDSISPNESIDDEHLLIQHYCQSLNQDSPLSQPRSPAQILISLESEERGELERILADLEEENRNLQAEYDRLKQQHEHKGLSPLPSPPEMMPTSPQSPRDAELIAEAKLLRQHKGRLEARMQILEDHNKQLESQLHRLRQLLEQPQAEAKVNGTTVSSPSTSLQRSDSSQPMLLRVVGSQTSDSMGEEDLLSPPQDTSTGLEEVMEQLNNSFPSSRGHNVGSLFHMADDLGRAMESLVSVMTDEEGAE

Variants of: B1
Conditions: with ank2_human ANK2, Q01484
Chain of ank2_human ANK2, Q01484 (Q01484 whole entry): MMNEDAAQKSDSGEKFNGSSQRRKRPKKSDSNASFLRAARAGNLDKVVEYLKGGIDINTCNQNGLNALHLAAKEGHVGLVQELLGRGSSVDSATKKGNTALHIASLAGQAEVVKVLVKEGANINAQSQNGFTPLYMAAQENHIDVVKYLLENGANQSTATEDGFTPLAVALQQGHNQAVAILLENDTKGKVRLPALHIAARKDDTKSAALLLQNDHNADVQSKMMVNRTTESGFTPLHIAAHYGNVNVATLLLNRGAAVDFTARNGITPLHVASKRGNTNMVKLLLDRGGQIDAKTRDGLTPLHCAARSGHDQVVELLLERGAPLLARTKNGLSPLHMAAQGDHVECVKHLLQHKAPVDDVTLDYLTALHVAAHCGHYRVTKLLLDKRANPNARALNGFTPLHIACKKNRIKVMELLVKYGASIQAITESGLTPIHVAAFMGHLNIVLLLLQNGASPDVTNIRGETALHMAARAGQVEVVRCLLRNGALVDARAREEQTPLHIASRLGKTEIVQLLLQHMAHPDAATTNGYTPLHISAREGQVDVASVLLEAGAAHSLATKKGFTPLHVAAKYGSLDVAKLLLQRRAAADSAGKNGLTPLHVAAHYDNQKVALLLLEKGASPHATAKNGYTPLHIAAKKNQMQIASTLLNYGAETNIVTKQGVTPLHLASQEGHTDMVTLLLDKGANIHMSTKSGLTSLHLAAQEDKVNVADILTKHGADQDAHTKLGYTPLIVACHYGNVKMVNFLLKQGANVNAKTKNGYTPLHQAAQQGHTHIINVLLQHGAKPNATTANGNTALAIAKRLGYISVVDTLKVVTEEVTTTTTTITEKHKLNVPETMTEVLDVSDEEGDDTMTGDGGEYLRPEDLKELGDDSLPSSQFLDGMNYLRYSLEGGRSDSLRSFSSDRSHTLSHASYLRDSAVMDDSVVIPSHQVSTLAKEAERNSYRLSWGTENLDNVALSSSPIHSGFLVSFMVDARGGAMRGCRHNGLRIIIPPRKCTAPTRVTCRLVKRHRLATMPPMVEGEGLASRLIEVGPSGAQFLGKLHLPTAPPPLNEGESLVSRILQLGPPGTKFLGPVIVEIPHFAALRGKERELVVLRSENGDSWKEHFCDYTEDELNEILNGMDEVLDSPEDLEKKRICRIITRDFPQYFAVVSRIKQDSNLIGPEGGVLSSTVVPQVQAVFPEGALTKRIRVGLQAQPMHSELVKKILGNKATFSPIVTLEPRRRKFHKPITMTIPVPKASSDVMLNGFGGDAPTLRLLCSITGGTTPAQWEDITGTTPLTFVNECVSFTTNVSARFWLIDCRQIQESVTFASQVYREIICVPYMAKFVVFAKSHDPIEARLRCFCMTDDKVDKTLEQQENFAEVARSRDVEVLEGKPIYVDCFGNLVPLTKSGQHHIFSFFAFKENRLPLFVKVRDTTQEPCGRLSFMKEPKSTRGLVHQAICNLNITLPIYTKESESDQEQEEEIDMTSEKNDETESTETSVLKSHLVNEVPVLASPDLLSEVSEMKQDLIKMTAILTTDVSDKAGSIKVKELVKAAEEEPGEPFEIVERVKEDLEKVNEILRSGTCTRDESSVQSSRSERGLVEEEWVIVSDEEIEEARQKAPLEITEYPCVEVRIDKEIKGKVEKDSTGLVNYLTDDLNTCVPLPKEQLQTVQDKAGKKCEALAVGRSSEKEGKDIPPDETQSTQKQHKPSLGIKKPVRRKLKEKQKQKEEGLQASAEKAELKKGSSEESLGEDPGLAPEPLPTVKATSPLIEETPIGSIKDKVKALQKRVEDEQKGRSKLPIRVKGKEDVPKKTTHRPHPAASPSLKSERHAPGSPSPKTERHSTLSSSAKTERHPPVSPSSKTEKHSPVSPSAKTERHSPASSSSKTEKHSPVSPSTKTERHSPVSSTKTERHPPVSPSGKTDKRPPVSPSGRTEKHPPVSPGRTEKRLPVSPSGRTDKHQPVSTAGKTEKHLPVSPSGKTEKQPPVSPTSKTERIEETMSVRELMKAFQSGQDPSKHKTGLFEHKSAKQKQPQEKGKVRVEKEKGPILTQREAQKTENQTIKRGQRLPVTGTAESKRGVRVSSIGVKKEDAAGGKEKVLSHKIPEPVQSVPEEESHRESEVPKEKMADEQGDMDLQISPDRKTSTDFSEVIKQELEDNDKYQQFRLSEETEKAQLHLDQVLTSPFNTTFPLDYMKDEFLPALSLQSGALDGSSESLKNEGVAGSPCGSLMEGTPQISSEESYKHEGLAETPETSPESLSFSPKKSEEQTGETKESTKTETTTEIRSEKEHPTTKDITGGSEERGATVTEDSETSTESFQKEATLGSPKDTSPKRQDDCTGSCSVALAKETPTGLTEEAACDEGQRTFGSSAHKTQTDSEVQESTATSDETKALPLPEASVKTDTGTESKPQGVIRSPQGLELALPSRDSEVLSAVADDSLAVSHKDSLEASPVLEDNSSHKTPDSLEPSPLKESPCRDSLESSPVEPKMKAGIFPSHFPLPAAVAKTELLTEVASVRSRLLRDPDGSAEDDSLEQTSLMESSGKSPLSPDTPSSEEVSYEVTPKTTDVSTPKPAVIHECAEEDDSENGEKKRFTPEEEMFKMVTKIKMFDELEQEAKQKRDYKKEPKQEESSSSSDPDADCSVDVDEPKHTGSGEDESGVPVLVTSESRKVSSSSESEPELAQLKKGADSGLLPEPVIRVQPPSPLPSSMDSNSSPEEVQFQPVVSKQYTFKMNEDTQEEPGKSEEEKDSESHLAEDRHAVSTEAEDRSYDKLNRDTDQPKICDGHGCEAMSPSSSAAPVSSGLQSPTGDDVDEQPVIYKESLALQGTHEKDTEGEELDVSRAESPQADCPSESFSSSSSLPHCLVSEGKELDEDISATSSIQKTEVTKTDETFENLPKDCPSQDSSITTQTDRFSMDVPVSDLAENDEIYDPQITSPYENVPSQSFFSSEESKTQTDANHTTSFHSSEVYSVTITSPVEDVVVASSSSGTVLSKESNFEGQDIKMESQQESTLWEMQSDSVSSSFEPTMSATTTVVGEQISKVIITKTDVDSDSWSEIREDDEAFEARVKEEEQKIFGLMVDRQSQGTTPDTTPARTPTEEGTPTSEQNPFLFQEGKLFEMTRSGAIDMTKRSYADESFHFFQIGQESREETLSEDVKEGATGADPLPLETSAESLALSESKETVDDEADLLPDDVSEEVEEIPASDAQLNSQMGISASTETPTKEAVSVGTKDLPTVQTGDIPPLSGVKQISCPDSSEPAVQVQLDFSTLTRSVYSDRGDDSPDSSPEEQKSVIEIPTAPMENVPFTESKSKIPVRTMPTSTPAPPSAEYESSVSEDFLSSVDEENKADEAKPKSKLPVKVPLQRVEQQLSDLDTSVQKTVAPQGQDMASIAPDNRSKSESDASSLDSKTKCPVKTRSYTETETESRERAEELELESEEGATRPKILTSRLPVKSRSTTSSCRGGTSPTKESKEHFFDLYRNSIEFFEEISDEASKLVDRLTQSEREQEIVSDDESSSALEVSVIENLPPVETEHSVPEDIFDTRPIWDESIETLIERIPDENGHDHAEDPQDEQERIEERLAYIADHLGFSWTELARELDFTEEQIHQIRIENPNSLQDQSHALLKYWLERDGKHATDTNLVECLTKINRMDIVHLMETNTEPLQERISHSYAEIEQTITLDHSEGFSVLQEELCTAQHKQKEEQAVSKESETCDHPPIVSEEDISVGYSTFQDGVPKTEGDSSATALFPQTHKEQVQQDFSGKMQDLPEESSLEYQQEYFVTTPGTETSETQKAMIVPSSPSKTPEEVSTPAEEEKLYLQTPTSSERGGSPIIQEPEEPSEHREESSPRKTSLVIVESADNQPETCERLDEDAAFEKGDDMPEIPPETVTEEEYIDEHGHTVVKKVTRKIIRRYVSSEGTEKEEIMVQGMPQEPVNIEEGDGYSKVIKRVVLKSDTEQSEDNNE
In the case of D267N, the “effect of a mutation on the interaction” value is reported as “decreasing interaction”.
